Measured values published in PMC6743029.

Experiment: Western blot, Huh7.5.1 lysates, 16 h
Conditions: glycan lost; control: untreated

B1: SR-BI (scavenger receptor class B, type I): tunicamycin (protein)
parent chain: MGCSAKARWAAGALGVAGLLCAVLGAVMIVMVPSLIKQQVLKNVRIDPSSLSFNMWKEIPIPFYLSVYFFDVMNPSEILKGEKPQVRERGPYVYREFRHKSNITFNNNDTVSFLEYRTFQFQPSKSHGSESDYIVMPNILVLGAAVMMENKPMTLKLIMTLAFTTLGERAFMNRTVGEIMWGYKDPLVNLINKYFPGMFPFKDKFGLFAELNNSDSGLFTVFTGVQNISRIHLVDKWNGLSKVDFWHSDQCNMINGTSGQMWPPFMTPESSLEFYSPEACRSMKLMYKESGVFEGIPTYRFVAPKTLFANGSIYPPNEGFCPCLESGIQNVSTCRFSAPLFLSHPHFLNADPVLAEAVTGLHPNQEAHSLFLDIHPVTGIPMNCSVKLQLSLYMKSVAGIGQTGKIEPVVLPLLWFAESGAMEGETLHTFYTQLVLMPKVMHYAQYVLLALGCVLLLVPVICQIRSQVGAGQRAARADSHSLACWGKGASDRTLWPTAAWSPPPAAVLRLCRSGSGHCWGLRSTLASFACRVATTLPVLEGLGPSLGGGTGS
- expression_or_secretion: decreases
